Measured values taken from article PMC4337726, “A molecular basis for the differential roles of Bub1 and BubR1 in the spindle assembly checkpoint” (eLife, 2015).

Assays:
Cdc20 = Cdc20 (UniProt Q12834); test: co-immunoprecipitation (anti-GFP IP), quantified Western blot; details: mitotic Flp-In T-REx cell lines; mean of two independent experiments; parent: 1.0; read off a plot
Apc7 = test: as above; details: mitotic Flp-In T-REx cell lines; mean of two independent experiments; parent: 1.0; read off a plot
Bub3 = Bub3 (UniProt O43684); test: as above; details: mitotic Flp-In T-REx cell lines; mean of two independent experiments; parent: 1.0; read off a plot
Cdc27 = test: as above; details: mitotic Flp-In T-REx cell lines; mean of two independent experiments; parent: 1.0; read off a plot
Mad2 = Mad2 (UniProt Q13257); test: as above; details: mitotic Flp-In T-REx cell lines; mean of two independent experiments; parent: 1.0; read off a plot
[1] = biological target: anaphase promoting complex/cyclosome, P30260;Q9UJX3; test: co-immunoprecipitation (anti-Cdc27 IP), quantified Western blot; details: mitotic Flp-In T-REx cell lines; mean of two independent experiments; parent: 1.0; read off a plot
H6-Bub1^209–409-MBP/Bub3 = biological target: T1, H6-Bub1^209–409-MBP/Bub3 (human | , UniProt O43683 209-409; O43684 1-328); test: SEC; mobility shift; proteins at 15 µM, 1 hr at 20–22°C in 50 mM Tris–HCl pH 8, 150 mM KCl, 1.5 mM TCEP, 0.05% Tween20; Superose6 10/300; SDS-PAGE of fractions; details: both partners purified
T1 construct: Bub3, untagged, co-expressed; source: insect cells, co-expressed, purified (TALON, SEC); not shown: H6, N-terminal, kept; MBP, C-terminal, kept

H6-Bub1^1–409/Bub3 = biological target: T2, H6-Bub1^1–409/Bub3 (human | , UniProt O43683 1-409; O43684 1-328); test: as above; details: both partners purified
T2 construct: Bub3, co-expressed, untagged or as Bub3-TRX; source: insect cells, co-infection and co-expression, purified (HisTrap, S200 SEC); not shown: H6, N-terminal, kept
T2 sequence (O43683 1-409, chain 1 of 2): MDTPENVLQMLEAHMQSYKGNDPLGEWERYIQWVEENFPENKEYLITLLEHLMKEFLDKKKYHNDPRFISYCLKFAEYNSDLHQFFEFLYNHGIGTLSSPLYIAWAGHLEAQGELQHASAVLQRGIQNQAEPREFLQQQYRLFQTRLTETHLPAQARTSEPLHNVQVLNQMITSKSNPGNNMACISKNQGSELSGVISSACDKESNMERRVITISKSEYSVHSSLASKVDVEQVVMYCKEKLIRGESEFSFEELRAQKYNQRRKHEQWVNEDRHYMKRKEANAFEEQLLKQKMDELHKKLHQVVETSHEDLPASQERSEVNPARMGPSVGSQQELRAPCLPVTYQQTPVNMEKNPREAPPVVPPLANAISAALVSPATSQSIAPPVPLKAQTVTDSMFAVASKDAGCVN
T2 sequence (O43684 whole entry, chain 2 of 2): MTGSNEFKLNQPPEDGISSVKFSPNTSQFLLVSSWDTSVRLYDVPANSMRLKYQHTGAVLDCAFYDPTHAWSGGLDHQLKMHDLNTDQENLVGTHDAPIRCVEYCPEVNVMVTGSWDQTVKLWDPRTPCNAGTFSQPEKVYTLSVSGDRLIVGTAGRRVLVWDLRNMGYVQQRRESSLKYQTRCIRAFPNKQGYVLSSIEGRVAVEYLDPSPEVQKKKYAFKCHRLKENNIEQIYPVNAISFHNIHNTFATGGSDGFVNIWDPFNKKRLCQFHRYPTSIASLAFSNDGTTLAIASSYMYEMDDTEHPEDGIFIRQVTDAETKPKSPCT

T1 sequence (O43683 209-409, chain 1 of 2): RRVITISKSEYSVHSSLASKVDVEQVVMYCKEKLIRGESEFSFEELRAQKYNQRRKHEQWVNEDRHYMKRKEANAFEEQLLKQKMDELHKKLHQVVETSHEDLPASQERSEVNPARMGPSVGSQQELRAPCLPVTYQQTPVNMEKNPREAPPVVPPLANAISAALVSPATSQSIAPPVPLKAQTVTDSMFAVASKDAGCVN
T1 sequence (O43684 whole entry, chain 2 of 2): as the sequence (O43684 whole entry, chain 2 of 2) above
Cdc20, sequence (Q12834 whole entry): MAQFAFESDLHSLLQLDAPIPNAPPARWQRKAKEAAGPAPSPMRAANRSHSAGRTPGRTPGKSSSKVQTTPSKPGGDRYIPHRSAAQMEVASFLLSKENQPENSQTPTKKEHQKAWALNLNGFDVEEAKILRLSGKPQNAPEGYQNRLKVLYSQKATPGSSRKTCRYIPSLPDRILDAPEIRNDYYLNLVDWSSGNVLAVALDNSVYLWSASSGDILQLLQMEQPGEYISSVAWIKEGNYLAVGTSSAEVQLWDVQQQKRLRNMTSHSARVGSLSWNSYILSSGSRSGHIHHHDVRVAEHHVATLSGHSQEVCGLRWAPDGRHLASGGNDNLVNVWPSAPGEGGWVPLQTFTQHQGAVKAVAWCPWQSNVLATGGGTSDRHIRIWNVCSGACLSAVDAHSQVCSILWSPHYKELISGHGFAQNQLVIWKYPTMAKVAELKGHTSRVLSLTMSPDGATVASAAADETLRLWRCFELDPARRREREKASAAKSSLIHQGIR
Mad2, sequence (Q13257 whole entry): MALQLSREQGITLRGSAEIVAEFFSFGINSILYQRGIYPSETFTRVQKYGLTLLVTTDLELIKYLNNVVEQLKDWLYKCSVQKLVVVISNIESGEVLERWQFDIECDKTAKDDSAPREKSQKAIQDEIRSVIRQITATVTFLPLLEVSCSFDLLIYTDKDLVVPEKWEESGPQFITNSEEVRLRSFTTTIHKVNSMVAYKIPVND
Bub3, sequence (O43684 whole entry): as the sequence (O43684 whole entry, chain 2 of 2) above

For “GFP-BubR1 wild type, full length (from UniProt O60566) B1-loop”, which ratio to parent (Cdc20) is on record?
The ratio to parent was 0.12.

And the ratio to parent (Apc7)?
The ratio to parent was 0.08.

And the ratio to parent (Bub3)?
Its ratio to parent is 1.1.

What about the ratio to parent (Cdc27) of the same molecule?
The ratio to parent was 0.06.

What about the ratio to parent (Mad2) of the same molecule?
Its ratio to parent is 0.12.

What about the ratio to parent [1] of the same molecule?
The ratio to parent was 0.15.

B1: H6-TRX-BubR1^362–571 (domain or fragment, human, UniProt O60566 362-571, looked up)
chain: INHILSTRKPGKEEGDPLQRVQSHQQASEEKKEKMMYCKEKIYAGVGEFSFEEIRAEVFRKKLKEQREAELLTSAEKRAEMQKQIEEMEKKLKEIQTTQQERTGDQQEETMPTKETTKLQIASESQKIPGMTLSSSVCQVNCCARETSLAENIWQEQPHSKGPSVPFSIFDEFLLSEKKNKSPPADPPRVLAQRRPLAVLKTSESITSNE
notes: source: insect cells, baculovirus, purified (TALON, SEC)
What does the source list for B1?
binding result (H6-Bub1^209–409-MBP/Bub3): binds; binding result (H6-Bub1^1–409/Bub3): binds
